Paper PMC11468923, “Mechanism of degrader-targeted protein ubiquitinability” (Science Advances, 2024)

Assays:
[1] = target: T1, wild-type ubiquitin (donor ubiquitin, Ub^D) (human, UniProt P0CG48 1-76, C terminus isopeptide-linked to K93 of UBE2R1(C93K, S138C, C191S, C223S)); experiment: cryo-EM structure; closed cross-linked sample: 6 uM NEDD8-CRL2^VHL (1 equiv), MZ1 (1.5 equiv) and Brd4^BD2-Ub(G76S,K48C)-UBE2R1(C93K, S138C, C191S, C223S)-Ub (1.5 equiv), 10 min at 4 C; 20 mM Hepes, 150 mM NaCl, 0.5 mM TCEP, pH 7.5; Krios 300 keV; ~3.7 A; settings: both partners purified
T1 construct: wild-type ubiquitin, the cut product of its precursor; Stood in the closed cryo-EM sample as part of the cross-linked conjugate m8

[2] = target: T2, ^15N-labeled ubiquitin (human wild-type Ub residues 1 to 76) (human, UniProt P0CG48 1-76, uniformly ^15N-labeled; C terminus isopeptide-linked to K93 of UBE2R1(C93K) in the conjugate sample); experiment: NMR 15N-1H HSQC chemical shift perturbation; ^15N-Ub free against ^15N-Ub isopeptide-linked to UBE2R1(C93K); 150 uM, 298 K, 600 MHz; 20 mM sodium phosphate, 150 mM NaCl, 0.5 mM TCEP, 5% D2O, pH 7.0; settings: both partners purified
T2 construct: ubiquitin, human wild type, residues 1 to 76; also called ^15N-Ub; Ub(^15N); source: E. coli BL21(DE3) Rosetta II, ^15N autoinducing media, purified (His-Trap, TEV, SEC); not shown: His6, N-terminal, cleaved

| Binder | binding result [1] | binding result [2] |
| --- | --- | --- |
| UBE2R1(C93K, S138C, C191S, C223S) (enzyme, human, UniProt P49427 1-236, looked up, K93 (C93K) isopeptide-linked to the C terminus of donor ubiquitin; C138 (S138C) cross-linked by BMOE to Ub(K48C,G76S)-Brd4^BD2, UBE2R1 (also known as Cdc34), human, full length; prepared by the same method as UBE2R1(C93K); Stood in the closed cryo-EM sample as part of the cross-linked conjugate m8; also called the E2; source: E. coli BL21(DE3) Rosetta II, purified (His-Trap, ULP1, SEC)) MARPLVPSSQKALLLELKGLQEEPVEGFRVTLVDEGDLYNWEVAIFGPPNTYYEGGYFKARLKFPIDYPYSPPAFRFLTKMWHPNIYETGDVKISILHPPVDDPQSGELPSERWNPTQNVRTILLSVISLLNEPNTFCPANVDASVMYRKWKESKGKDREYTDIIRKQVLGTKVDAERDGVKVPTTLAEYSVKTKAPAPDEGSDLFYDDYYEDGEVEEEADSSFGDDEDDSGTEES | binds | – |
| UBE2R1(C93K) (enzyme, human, UniProt P49427 1-236, looked up, K93 (C93K) isopeptide-linked to the C terminus of ^15N-labeled ubiquitin, UBE2R1 (also known as Cdc34), human, full length; also called Cdc34 C93K; the E2; source: E. coli BL21(DE3) Rosetta II, purified (His-Trap, ULP1, SEC)) MARPLVPSSQKALLLELKGLQEEPVEGFRVTLVDEGDLYNWEVAIFGPPNTYYEGGYFKARLKFPIDYPYSPPAFRFLTKMWHPNIYETGDVKISILHPPVDDPQSGELPSERWNPTQNVRTILLSVISLLNEPNTFSPANVDASVMYRKWKESKGKDREYTDIIRKQVLGTKVDAERDGVKVPTTLAEYCVKTKAPAPDEGSDLFYDDYYEDGEVEEEADSCFGDDEDDSGTEES | – | binds |
